Measured values published in publication PMC12073449, “Development of a Mechanism of Action-Reflective Cell-Based Reporter Gene Assay for Measuring Bioactivities of Therapeutic Glucagon-like Peptide-2 Analogues” (Molecules, 2025).
Square brackets hold non-standard residues; d marks the D form. Ends that are not written are not given here. Nle = CCCC[C@H](N)C(=O)O

How the values were obtained:
[1] = tested on: dipeptidyl peptidase 4 (DPP-4); details: cited from earlier work
Description: (§1) This truncated form is subsequently degraded by endopeptidases and presumably cleared via renal excretion. […] Consequently, DPP-4 resistant GLP-2 analogues with an extended half-life were developed.

human GLP-2R [2] = biological target: T1, human GLP-2R (Homo sapiens, UniProt O95838); assay: Cell-based reporter gene assay (RGA), HEK293-GLP-2R-Luc, CRE-luciferase; details: for concentration–response curve in RGA (specificity) / dose-response curve in RGA: diluted to 2.665 µmol/L and further 7-fold for 10 concentration points, HEK293-GLP-2R-Luc cells; for Mean potency: mean of 8 tests, two analysts
T1 construct: The full-length cDNA of human GLP-2R was synthesized, cloned, and inserted into the pLU.cmv.Zeo vector; expressed in transfected cells
T1 sequence (O95838 1-553): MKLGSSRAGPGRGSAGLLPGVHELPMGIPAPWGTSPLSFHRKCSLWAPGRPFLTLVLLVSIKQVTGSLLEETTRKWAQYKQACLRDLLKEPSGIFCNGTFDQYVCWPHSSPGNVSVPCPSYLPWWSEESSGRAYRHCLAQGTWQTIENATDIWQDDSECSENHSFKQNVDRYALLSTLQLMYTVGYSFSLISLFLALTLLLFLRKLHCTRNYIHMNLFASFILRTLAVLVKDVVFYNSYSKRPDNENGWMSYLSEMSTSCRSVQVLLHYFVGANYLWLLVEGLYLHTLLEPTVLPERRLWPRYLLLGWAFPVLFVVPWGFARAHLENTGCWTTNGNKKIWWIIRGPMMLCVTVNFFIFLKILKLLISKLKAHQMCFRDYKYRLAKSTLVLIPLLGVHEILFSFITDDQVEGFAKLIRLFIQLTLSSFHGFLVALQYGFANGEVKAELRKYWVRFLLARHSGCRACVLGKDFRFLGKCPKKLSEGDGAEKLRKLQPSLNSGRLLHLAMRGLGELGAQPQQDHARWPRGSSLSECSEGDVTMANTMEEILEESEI
Description: To generate a HEK293 cell line stably expressing CRE-driven luciferase and GLP2R, the CRE-miniP.Luc virus-containing cell supernatants were diluted in DMEM in the presence of 8 µg/mL polybrene before being added to HEK293 cells. To obtain a stable cell pool, the medium was replaced 48 h after incubation, with fresh culture medium containing 3 µg/mL puromycin. After about 3 weeks selection, the cell pool was then further infected with pLU.cmv-GLP2R.Zeo virus and selected with 200 µg/mL Zeocin and 3 µg/mL puromycin. […] The expression of GLP-2R was examined using flow cytometry. After that, the positive clones were routinely maintained in selective medium.
Cell-based RGA has been described previously. Briefly, 50 microliters of HEK293-GLP-2R-Luc cells were seeded into a 96-well white plate at a density of 4 × 10^4 cells/well. The cells were then incubated at 37 °C with 5% CO2 overnight (16 to 24 h). […] After 5 h of incubation, 100 µL of britelite plus reporter Gene Assay reagent were added to each well and mixed thoroughly under subdued light conditions for 5 min. The RLU signal was then determined with a SpectraMax M5e multimode plate reader (Molecular Devices, San Jose, CA, USA).
The RGA was validated as described previously. […] Samples of each potency level were tested by two analysts 8 times in total. […] The response of HEK293-GLP2R-Luc cells to these samples were determined as illustrated in 4.6.
The lower/upper asymptote was determined by the ratio of the top asymptote to the bottom asymptote when RGA best fit the 4PL model. The correlation coefficient (R^2), deviations from parallelism, and the regression in the 4PL model were estimated using SoftMax® Pro 7.1 software (Molecular Devices, San Jose, CA, USA). Specifically, a linear regression with an R^2 value no less than 0.98 was considered to have a very good fit. Additionally, a p-value below 0.01 was regarded as statistically significant. […] All the dose-response curves were plotted using GraphPad Prism® software 8.0.2 (GraphPad, Boston, MA, USA).

[3] = design: method as in PMID 35933503; details: general statement; cited from earlier work
Description: The diverse functions of GLP-2 highlight its significance in maintaining intestinal health and physiology. As a naturally occurring gut hormone, GLP-2 not only promotes nutrient absorption by decreasing intestinal motility and permeability, but also plays a pivotal role in stimulating intestinal epithelial cell growth and function. This multifaceted action of GLP-2 is crucial for the maintenance of the intestinal barrier, which is essential for preventing the translocation of harmful bacteria and toxins into the bloodstream.

patients with SBS = details: cited from earlier work
Description: as §1

rat = tested on: rat; design: method as in PMID 31577440; details: head-to-head preclinical study; cited from earlier work
human GLP-2R [4] = biological target: T1, human GLP-2R; assay: Cell-based reporter gene assay (RGA), HEK293-GLP-2R-Luc, CRE-luciferase; details: incubation time 5 h and 6 h, compared with 4 h; 96-well plate
[5] = Appearance of teduglutide drug substance solution after storage at 37 °C; assay type: physicochemical; details: after incubation for 12 or 14 days at 37 °C
[6] = Teduglutide content by HPLC after storage at 37 °C; assay type: physicochemical; details: XBridge Peptide BEH C18, 214 nm, peak area ratio to non-treated DS
Description: The bioactivities of the treated and non-treated DS were then measured by the RGA. The teduglutide contents were analyzed by HPLC. An XBridge Peptide BEH C18 column (300 A, 5 μm, 4.6 mm × 250 mm) purchased from Waters (Milford, MA, USA) was used with a flow rate of 1.0 mL/min and was detected at 214 nm. The mobile phase was aqueous solution containing 0.1% trifluoroacetic acid and acetonitrile containing 0.1% trifluoroacetic acid. A total of 50 μL DS samples were injected into the column.

intestinal cells = tested on: intestinal cells; design: method as in PMID 32060615; details: cited from earlier work
rat GLP-2R = details: BHK fibroblasts stably transfected with the rat GLP-2R; cited from earlier work
Description: GLP-2 exerts its effects largely through interaction with the GLP-2 receptor (GLP-2R), which belongs to the class B1 of the G protein-coupled receptors. […] This led to the hypothesis that GLP-2 acts indirectly through a complex network of indirect mediators that induce diverse signaling pathways, which remains poorly understood.

intestinal epithelium = details: rodents; cited from earlier work
Description: (§2) GLP-2 regulates proliferative and cytoprotective pathways in the intestine. […] Additionally, it couples with the activation of the Ras/MAPK pathway and stimulates DNA synthesis.

[7] = tested on: enteric neurons and glial cells; details: via the PI3K/Akt/mTOR pathway; cited from earlier work
Description: as §2

## GLP-2 (3–33): truncated and inactive GLP-2 formed by DPP-4 (DGSFSDEMNTILDNLAARDFINWLIQTKITD; Glucagon-like peptide 2; UniProt P01275 148-178, looked up, fragment)
[1]; DPP-4 cleavage product
  activity of truncated GLP-2: inactive

## glucagon-like peptide-1 [GLP-1]
Human GLP-2R [2]
  concentration–response curve in RGA (specificity): unsuccessfully induced

## IL-4: 200-04, Thermo Fisher Scientific
Human GLP-2R [2]
  concentration–response curve in RGA (specificity): no dose–dependent response curve was induced

## IL-6: 200-06, Thermo Fisher Scientific
Human GLP-2R [2]
  concentration–response curve in RGA (specificity): no dose–dependent response curve was induced

## glucose-dependent insulinotropic peptide [GIP]
Human GLP-2R [2]
  concentration–response curve in RGA (specificity): unsuccessfully induced

## HGDGSFSDE[Nle][dF]TILDLLAARDFINWLIQTKITD-NH2 [apraglutide, GLP-2 analogue under development for SBS, synthesized by GenScript]
[3]
  bioactivity: enhanced bioactivities
  half-life: extended half-lives
Patients with SBS; Phase II clinical trials, SBS
  dependence on PN support: significant reduction in patients’ dependence on PN support
rat
  half-life compared to teduglutide and glepaglutide: longer half-life
  intestinotrophic effect compared to teduglutide and glepaglutide: greater intestinotrophic effect
Human GLP-2R [2]
  dose-response curve in RGA: induced sigmoid curves similar to those induced by teduglutide

## His-Gly-Asp-Gly-Ser-Phe-Ser-Asp-Glu-Met-Asn-Thr-Ile-Leu-Asp-Asn-Leu-Ala-Ala-Arg-Asp-Phe-Ile-Asn-Trp-Leu-Ile-Gln-Thr-Lys-Ile-Thr-Asp [teduglutide, [Gly2] hGLP-2 (1–33), first and only GLP-2 analogue approved for medical treatment of short bowel syndrome]
[3]
  bioactivity: enhanced bioactivities
  half-life: extended half-lives
Patients with SBS; SBS
  intestinal absorption, growth and transit in SBS: increase intestinal absorption by promoting intestinal growth and delays accelerated gastric emptying, gastrointestinal transit, and hypersecretions
Patients with SBS; patients with SBS, daily treatment
  PN requirements and intestinal function: significant reduction in PN requirements and an improvement in intestinal function
Human GLP-2R [4]
  drug response vs incubation time: stronger response (higher upper asymptote)
[5]
  precipitation of DS solution: develops a clear colloidal precipitate
[6]; end of decline with incubation at 37 °C
  teduglutide content: 81.6%
[6]; start of decline, 37 °C
  teduglutide content: 99.9%
Human GLP-2R [2]; clones D5, D9, E11, F2, G11
  response of five clones: high response
Human GLP-2R [2]; expected 50%
  Mean Ln potency: −0.659
  Mean potency: 0.518
Human GLP-2R [2]; expected 71%
  Mean Ln potency: −0.343
  Mean potency: 0.711
Human GLP-2R [2]; expected 100%
  Mean Ln potency: 0.005
  Mean potency: 1.007
Human GLP-2R [2]; expected 141%
  Mean Ln potency: 0.372
  Mean potency: 1.453
Human GLP-2R [2]; expected 200%
  Mean Ln potency: 0.757
  Mean potency: 2.140

## HGEGSFSSELSTILDALAARDFINWLIATKITDKKKKKK [elsiglutide, GLP-2 analogue under development, synthesized by GenScript]
Intestinal cells
  cell proliferation and intestinal cell apoptosis: increase cell proliferation and reduce intestinal cell apoptosis
[3]
  bioactivity: enhanced bioactivities
  half-life: extended half-lives
Human GLP-2R [2]
  dose-response curve in RGA: induced sigmoid curves similar to those induced by teduglutide

## Glucagon-like peptide-2 [GLP-2]
Rat GLP-2R
  cAMP accumulation: dose-dependent cAMP accumulation
[1]; excision of the two N-terminal amino acids
  inactivation by DPP-4: rapid inactivation
Patients with SBS; SBS
  intestinal absorption, growth and transit in SBS: increase intestinal absorption by promoting intestinal growth and delays accelerated gastric emptying, gastrointestinal transit, and hypersecretions
Intestinal epithelium
  growth of the intestinal epithelium: enhances the growth of the intestinal epithelium
[7]
  neuronal differentiation: stimulate neuronal differentiation
